Results from US20170119861.

What was measured:
Aβ42 fibrils = Aβ42 fibrils (UniProt P05067)
Aβ42 oligomers = Aβ42 oligomers (UniProt P05067)
synthetic Aβ42 peptide = synthetic Aβ42 peptide (UniProt P05067)
[1] = target: protective protein/cathepsin A (PPCA) (UniProt P10619)
Chain of protective protein/cathepsin A (PPCA) (P10619 29-480): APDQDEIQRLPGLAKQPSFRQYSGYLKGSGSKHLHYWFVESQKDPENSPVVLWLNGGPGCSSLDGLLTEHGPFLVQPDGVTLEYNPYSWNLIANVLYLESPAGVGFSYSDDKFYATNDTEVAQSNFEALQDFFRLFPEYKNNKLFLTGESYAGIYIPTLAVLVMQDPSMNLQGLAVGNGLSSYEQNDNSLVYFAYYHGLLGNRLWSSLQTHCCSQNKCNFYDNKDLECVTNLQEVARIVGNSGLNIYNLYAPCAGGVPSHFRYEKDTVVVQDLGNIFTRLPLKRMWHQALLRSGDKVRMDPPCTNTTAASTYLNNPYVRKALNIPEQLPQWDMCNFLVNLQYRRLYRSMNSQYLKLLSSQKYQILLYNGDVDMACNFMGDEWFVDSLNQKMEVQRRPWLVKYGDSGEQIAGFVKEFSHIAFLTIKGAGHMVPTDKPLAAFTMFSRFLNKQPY

Chain of cathepsin D (chain, as listed by the source): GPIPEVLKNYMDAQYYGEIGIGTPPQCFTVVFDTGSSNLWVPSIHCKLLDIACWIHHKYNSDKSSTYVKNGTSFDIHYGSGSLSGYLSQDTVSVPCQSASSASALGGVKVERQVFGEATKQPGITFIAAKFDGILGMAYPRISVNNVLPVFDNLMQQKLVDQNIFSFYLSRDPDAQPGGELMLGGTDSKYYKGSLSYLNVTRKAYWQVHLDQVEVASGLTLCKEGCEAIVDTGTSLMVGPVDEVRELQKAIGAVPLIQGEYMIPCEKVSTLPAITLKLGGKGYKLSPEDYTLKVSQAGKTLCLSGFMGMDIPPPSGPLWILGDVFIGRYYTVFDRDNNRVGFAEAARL
Chain of synthetic Aβ42 peptide (P05067 whole entry, looked up, tested part not stated): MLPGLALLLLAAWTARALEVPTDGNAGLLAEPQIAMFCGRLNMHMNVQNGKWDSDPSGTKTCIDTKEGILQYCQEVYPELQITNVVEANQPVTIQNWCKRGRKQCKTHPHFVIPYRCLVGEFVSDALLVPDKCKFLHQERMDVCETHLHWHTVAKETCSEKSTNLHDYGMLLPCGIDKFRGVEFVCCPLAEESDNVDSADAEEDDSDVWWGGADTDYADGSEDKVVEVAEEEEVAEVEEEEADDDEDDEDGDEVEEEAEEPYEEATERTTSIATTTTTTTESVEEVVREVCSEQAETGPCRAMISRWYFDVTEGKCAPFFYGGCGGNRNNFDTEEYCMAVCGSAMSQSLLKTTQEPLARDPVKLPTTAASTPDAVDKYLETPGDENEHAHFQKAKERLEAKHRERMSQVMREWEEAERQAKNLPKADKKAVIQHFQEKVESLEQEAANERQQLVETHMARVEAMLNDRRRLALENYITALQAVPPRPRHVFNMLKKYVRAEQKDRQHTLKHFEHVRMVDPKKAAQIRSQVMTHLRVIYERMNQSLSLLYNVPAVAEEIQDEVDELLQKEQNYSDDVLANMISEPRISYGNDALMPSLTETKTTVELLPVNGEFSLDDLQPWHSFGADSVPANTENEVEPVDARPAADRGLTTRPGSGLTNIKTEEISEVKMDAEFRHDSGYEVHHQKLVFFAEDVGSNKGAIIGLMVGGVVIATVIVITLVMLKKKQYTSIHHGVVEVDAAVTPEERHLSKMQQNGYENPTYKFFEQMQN
Chain of Aβ42 oligomers (P05067 whole entry, looked up): as the sequence (P05067 whole entry, looked up, tested part not stated) above
Chain of Aβ42 fibrils (P05067 whole entry, looked up): as the sequence (P05067 whole entry, looked up, tested part not stated) above
Chain of cathepsin L (chain, as listed by the source): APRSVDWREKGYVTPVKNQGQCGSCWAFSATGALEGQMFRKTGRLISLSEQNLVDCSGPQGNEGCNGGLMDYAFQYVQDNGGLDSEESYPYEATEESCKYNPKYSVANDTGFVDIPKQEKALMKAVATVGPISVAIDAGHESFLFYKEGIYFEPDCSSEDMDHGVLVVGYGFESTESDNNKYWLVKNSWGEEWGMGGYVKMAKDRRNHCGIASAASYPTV

| Substance | western blot (E610) of day 9 Aβ42 fibrils after overnight treatment with 90 ng enzyme (Aβ42 fibrils) | western blot (A11) of day 9 Aβ42 oligomers after overnight treatment with 90 ng enzyme (Aβ42 oligomers) | THT assay and western blot of Aβ42 treated with cathepsin D (synthetic Aβ42 peptide) | activation of cathepsin A (enzyme activity) [1] | western blot of Aβ42 treated with cathepsin B (synthetic Aβ42 peptide) |
| --- | --- | --- | --- | --- | --- |
| cathepsin D | did not result in visible reduction/degradation of fibril smear or oligomer bands | did not reveal changes in intensity or size of oligomer band (lines 5, 6) | strong prevention of aggregation of Aβ42 species, measured by THT; complete elimination Aβ42 monomers |  |  |
| cathepsin L |  |  |  | Activation of 90 ng cathepsin A by cathepsin L |  |
| cathepsin B | resulted in weak reduction/degradation of the fibril smear (line 5 compared to line 2) | did not reveal changes in intensity or size of oligomer band (lines 5, 6) |  |  | cathepsin B prevents aggregation of low molecular weight Aβ42 species and degrades Aβ42 monomers in a time dependent manner |
